Assay results taken from the supplement of paper PMC9170038.

System: MS2 coat protein
Test: apparent KD of MS2 coat protein; designed switch direction (-1 OFF switch, 1 ON switch): 1; higher = weaker reporter binding
In short: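 The apparent KD reported per design is the median over clusters of curve fits to normalised cluster fluorescence. The RNA switches were transcribed on Illumina chips by stalled E. coli RNA polymerase. SNAP-549-labelled MS2 coat protein was titrated from 0.7 or 1.5 nM, doubling up to 3 µM, in Tris-HCl pH 7.5 buffer containing KCl, MgCl2, BSA, DTT, tRNA and Tween-20, with no input, 200 uM small-molecule ligand, or an oligonucleotide input.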

[1] = input ligand: microRNA oligo, concentration not stated

Row | Sequence | apparent KD of MS2 coat protein (input ligand: FMN 200 uM) [nM] | apparent KD of MS2 coat protein [1] [nM] | apparent KD of MS2 coat protein (input ligand: none) [nM]
1 | GUGGUCAGACAUGAGGAUCACCCAUGUGGAAUAAAUAAGGGUCAGGAUAUGAAAUAUAGGAUAUAUCAGAAGGGAUGGUUGGUG (Eterna round: R96, puzzle: Same State NG 3) | 101 | 81.1 | 90.5
2 | GUGGUCAGACAUGAGGAUCACCCAUGUGGAAUAAAUAAGGGUUAGGAUAUCUAAUAUAGGAUAUAAGAGAAGGGAUGGUUGGUG (Eterna round: R96, puzzle: Same State NG 3) | 118 | 64.8 | 96.2
3 | GUGGUCUGACAUGAGGAUCACCCAUGUGGAAUAAAUACGGGUUAGGAUAUCUUGAGGAUCACCCAAGAGAAGGGAUGGACCGUU (Eterna round: R96, puzzle: Same State NG 3) | 36.3 | 30.9 | 47.5
4 | GUGGUCUGACAUGAGGAUCACCCAUGUGGAAUAAAUACGGGUUAGGAUAUCUUGAGGAUCACCCAAGAGAAGGGAUGGAUGGUC (Eterna round: R96, puzzle: Same State NG 3) | – | 71 | –
5 | GUGGUGCUUCUAGGAUAUUCAGCGGCCCUCACAUGAGGAUCACCCAUGUUCACAAGAGAAACCAUGAAGAAGGAGAACUACAAU [Eternabot solution 42] (Eterna round: R96, puzzle: Same State NG 2) | 45.6 | 39.9 | 55.8
6 | GUGGUGGGUUGAGGAUAUUGGUUGUUGUUGUCCCACAUGAGGAUCACCCAUGUGGGUUGUGGUUUUGAGAAGGUUGGUUGCUGG [salish99_SSNG2_r04_051] (Eterna round: R96, puzzle: Same State NG 2) | – | 14.4 | –
7 | GUGGUGUAGAUACAGGAUAUGUUGCUCGUAACAUGAGGAUCACCCAUGUAUCUAUGAGAUUAAAUGCAGAAGGGUGCACACCACG [Maerveen] (Eterna round: R96, puzzle: Same State 2) | 22 | 220 | 358
8 | GUGGUUCUCGUAGGAUAUGUAGGAUAUCCCUACAUGAGGAUCACCCAUGUUCGCAUGGGAGAAGGACAGAAGGACGAUCGCUAA [pwkr ssNG2 2FMN + 1F5.16] (Eterna round: R96, puzzle: Same State NG 2) | 20.9 | 11.1 | 53.5
9 | GUUACAUGAGGAUCACCCAUGUAUGUGUGGGAGUAAGUGUCUUAGGAUAUCUAGAAUUUAAUUUAAGAGAAGGAAGAUUGUUGU [JMF's solution 49] (Eterna round: R96, puzzle: Same State NG 3) | 104 | 61 | 83
10 | GUUACAUGAGGAUCACCCAUGUAUGUGUGGGAGUAAGUGUCUUAGGAUAUCUAGCAUUUAAUUUAAGAGAAGGAAGAUUGUUGU [JMF's solution 51] (Eterna round: R96, puzzle: Same State NG 3) | 79.7 | 59.9 | 84.1
11 | GUUACAUGAGGAUCACCCAUGUAUGUGUGGGAGUAAGUGUCUUAGGAUAUCUAUCAGUUAAUUUAAGAGAAGGAAGAUUGUUGU [JMF's solution 90] (Eterna round: R96, puzzle: Same State NG 3) | 126 | 111 | 115
